Test results published in US10994019B2, “Bicyclic peptide-toxin conjugates specific for MT1-MMP” (BicycleRD Limited, priority 2016, dated 2021).
Starred links: 1 amine or outer side, 2 acyl side, 3 side chain; linkers in the order of their positions; H or OH if unused. Positions of bridges follow the written chain, without caps; N, C: chain ends. Non-standard residues stand in square brackets, D forms with d. Residues, ends and D or L forms follow the SMILES beside them. *: point of attachment. X1 = COc1cc2cc(c1Cl)N(C)C(=O)C[C@H](OC(=O)[C@H](C)N(C)C(=O)CCSSC(C)(C)CCC(=O)*)[C@]1(C)O[C@H]1[C@H](C)[C@@H]1C[C@@](O)(NC(=O)O1)[C@H](OC)/C=C/C=C(\C)C2; 1Nal = N[C@@H](Cc1cccc2ccccc12)C(=O)O; TBMB = c1c(C[*:1])cc(C[*:3])cc1C[*:2]; Tle = CC(C)(C)[C@H](N)C(=O)O; βAla = NCCC(=O)O; Sar = CNCC(=O)O

Key:
[1] = system: murine, dog, cynomolgus and human MT1-MMP; assay: Species cross-reactivity of peptide ligands; assay type: binding
[2] = Plasma stability profiling, Method #2 (quantitative LC-MS), human plasma; assay type: in vitro ADME; conditions: incubation up to 24 hrs in plasma, 4 μM BDC, read-out: t1/2 (hrs) (human plasma) (converted)
Description: (§1) To obtain plasma stability of bicyclic peptides quantitatively, peptide stock solutions (160 μM in DMSO) were mixed with plasma (human, rat or mouse), such that final concentrations were 4 μM, and incubated at 37° C. 40 μL samples were taken periodically up to 24 hrs and frozen at −80° C. Prior to LC-MS analysis, samples were defrosted, and mixed with 3 volumes (here, 120 μL) of 1 part water, 3 parts acetonitrile and 3 parts methanol. The milky suspensions were centrifuged for 40 min at 14000 rpm in a cooled centrifuge, and peptide-containing supernatants were quantitated for doubly/triply charged species and MS/MS fragments thereof using a Waters Xevo TQ-D instrument, while using a plasma extracted standard curve of the same peptides as a reference. The half-life of degradation in plasma was used to assess the comparative stability of the molecules.

[3] = Plasma stability profiling, Method #2 (quantitative LC-MS), mouse plasma; assay type: in vitro ADME; conditions: incubation up to 24 hrs in plasma, 4 μM BDC, read-out: t1/2 (hrs) (mouse plasma) (converted)
Description: as §1

[4] = Plasma stability profiling, Method #2 (quantitative LC-MS), rat plasma; assay type: in vitro ADME; conditions: incubation up to 24 hrs in plasma, 4 μM BDC, read-out: t1/2 (hrs) (rat plasma) (converted)
Description: as §1

[5] = Relative stability to DTT of Bicycle Drug Conjugates by quantitative LC-MS; assay type: physicochemical; conditions: compared to unhindered disulphide BDCs
Description: Both BDC conjugate structures were assessed for several in vitro parameters such as retention of potency to the human MT1-MMP hemopexin domain, stability in mouse, rat and human plasma, and stability to reducing agents such as dithiothreitol.

EBC-1 xenograft tumours = assay: Efficacy in EBC-1 xenograft mice; assay type: in vivo, Balb/c nude mice
Description: (§2) Efficacy of BT17BDC-27 and BT17BDC-28 in EBC-1 Xenograft Mice.
(§3) Balb/c nude mice bearing subcutaneous EBC-1 xenograft tumours were treated with BDCs or vehicle. BDCs were dosed 3 times weekly for 2 weeks, dosing initiated when tumours measured approx. 150-200 mm^3. Mice were monitored, and measurements of tumour volume and body weight recorded 3 times a week.
Both BDCs were tested for their efficacies in in vivo mouse xenograft models, using the human lung squamous cell carcinoma line EBC-1.

[6] = Body weight during treatment of EBC-1 xenograft mice; assay type: in vivo, Balb/c nude mice; conditions: 10 mg/kg
Description: FIG. 2: Body weight during treatment of EBC-1 xenograft mice with BT17BDC-27, which is indicative of drug-associated toxicology and overall animal health.
FIG. 4: Body weight during treatment of EBC-1 xenograft mice with BT17BDC-28, which is indicative of drug-associated toxicology and overall animal health.
as §2, §3

[7] = cited from earlier work; for reduction in sensitivity to a reducing agent such as dithiothreitol: in the antibody drug conjugate context; for Relative Stability to DTT (ADC): values relate to antibody drug conjugates containing the disulphide linker
[8] = system: MMP-1, MMP-2, MMP-15 and MMP-16; assay: Selectivity for MT1-MMP over other MMPs; assay type: binding
[9] = 10 mg/kg, dosed 3 times weekly for 2 weeks

| Compound | cross-reactivity with murine, dog, cynomolgus and human MT1-MMP [1] | half-life at 4 μM [2] [h] | half-life at 4 μM [3] [h] | half-life at 4 μM [4] [h] | Relative Stability to DTT (BDC) [5] | body weight [6] | reduction in sensitivity to a reducing agent such as dithiothreitol [7] [fold] | Relative Stability to DTT (ADC) [7] | other results |
| --- | --- | --- | --- | --- | --- | --- | --- | --- | --- |
| C[C@H](N)C(=O)N[C@H]1CSCc2cc3cc(c2)CSC[C@H](NC(=O)[C@@H](C)NC(=O)[C@H](Cc2cccc4ccccc24)NC(=O)[C@H](CCC(=O)O)NC(=O)[C@H](CC(N)=O)NC(=O)[C@@H](C)NC1=O)C(=O)N[C@@H](CCC(=O)O)C(=O)N[C@@H](CC(=O)O)C(=O)N[C@@H](Cc1ccccc1)C(=O)N[C@@H](Cc1ccc(O)cc1)C(=O)N[C@@H](CC(=O)O)C(=O)N[C@@H](C(C)(C)C)C(=O)N[C@H](C(N)=O)CSC3 [17-69-07-N268, A-(17-69-07) D-Ala1 1Nal4 D-Ala5 tBuGly11] (H-AC[dA]NE[1Nal][dA]CEDFYD[Tle]C-NH2; linker 2-8-15 via TBMB) | fully cross reactive |  |  |  |  |  |  |  |  |
| COc1cc2cc(c1Cl)N(C)C(=O)C[C@H](OC(=O)[C@H](C)N(C)C(=O)CCSSC(C)(C)CCC(=O)N[C@@H](C)C(=O)N[C@H]1CSCc3cc4cc(c3)CSC[C@H](NC(=O)[C@@H](C)NC(=O)[C@H](Cc3cccc5ccccc35)NC(=O)[C@H](CCC(=O)O)NC(=O)[C@H](CC(N)=O)NC(=O)[C@@H](C)NC1=O)C(=O)N[C@@H](CCC(=O)O)C(=O)N[C@@H](CC(=O)O)C(=O)N[C@@H](Cc1ccccc1)C(=O)N[C@@H](Cc1ccc(O)cc1)C(=O)N[C@@H](CC(=O)O)C(=O)N[C@@H](C(C)(C)C)C(=O)N[C@H](C(N)=O)CSC4)[C@]1(C)O[C@H]1[C@H](C)[C@@H]1C[C@@](O)(NC(=O)O1)[C@H](OC)/C=C/C=C(\C)C2 [BT17BDC-27] (X1-AC[dA]NE[1Nal][dA]CEDFYD[Tle]C-NH2; linker 2-8-15 via TBMB) |  | 36 | 23 | 9 | 32 | slight reduction in body weight | 14 | 14 | cleared tumours within (EBC-1 xenograft tumours; [9]): ≤ 14 days; efficacy and tolerability (EBC-1 xenograft tumours; doses equal or lower than 5 mg/kg): appreciable efficacy and tolerability |
| COc1cc2cc(c1Cl)N(C)C(=O)C[C@H](OC(=O)[C@H](C)N(C)C(=O)CCSSC(C)(C)CCC(=O)NCCC(=O)N(C)CC(=O)N(C)CC(=O)N(C)CC(=O)N(C)CC(=O)N(C)CC(=O)N(C)CC(=O)N(C)CC(=O)N(C)CC(=O)N(C)CC(=O)N(C)CC(=O)N[C@@H](C)C(=O)N[C@H]1CSCc3cc4cc(c3)CSC[C@H](NC(=O)[C@@H](C)NC(=O)[C@H](Cc3cccc5ccccc35)NC(=O)[C@H](CCC(=O)O)NC(=O)[C@H](CC(N)=O)NC(=O)[C@@H](C)NC1=O)C(=O)N[C@@H](CCC(=O)O)C(=O)N[C@@H](CC(=O)O)C(=O)N[C@@H](Cc1ccccc1)C(=O)N[C@@H](Cc1ccc(O)cc1)C(=O)N[C@@H](CC(=O)O)C(=O)N[C@@H](C(C)(C)C)C(=O)N[C@H](C(N)=O)CSC4)[C@]1(C)O[C@H]1[C@H](C)[C@@H]1C[C@@](O)(NC(=O)O1)[C@H](OC)/C=C/C=C(\C)C2 [BT17BDC-28] ({X1-βAla}-[Sar][Sar][Sar][Sar][Sar][Sar][Sar][Sar][Sar][Sar]AC[dA]NE[1Nal][dA]CEDFYD[Tle]C-NH2; linker 12-18-25 via TBMB) |  | 29 | 19 | 13 | 28 | no weight loss was observed | 14 | 14 | effect on tumour growth (EBC-1 xenograft tumours; [9]): tumour growth stasis but not active regression |
| -Ci-Y-N-E-F-G-Cii-E-D-F-Y-D-I-Ciii- [17-69-07] |  |  |  |  |  |  |  |  | selectivity for MT1-MMP (no cross-reaction with MMP-1, MMP-2, MMP-15 and MMP-16) [8]: uniquely selective for MT1-MMP |
| C[C@H](NC(=O)CN(C)C(=O)CN(C)C(=O)CN(C)C(=O)CN(C)C(=O)CN(C)C(=O)CN(C)C(=O)CN(C)C(=O)CN(C)C(=O)CN(C)C(=O)CN(C)C(=O)CCN)C(=O)N[C@H]1CSCc2cc3cc(c2)CSC[C@H](NC(=O)[C@@H](C)NC(=O)[C@H](Cc2cccc4ccccc24)NC(=O)[C@H](CCC(=O)O)NC(=O)[C@H](CC(N)=O)NC(=O)[C@@H](C)NC1=O)C(=O)N[C@@H](CCC(=O)O)C(=O)N[C@@H](CC(=O)O)C(=O)N[C@@H](Cc1ccccc1)C(=O)N[C@@H](Cc1ccc(O)cc1)C(=O)N[C@@H](CC(=O)O)C(=O)N[C@@H](C(C)(C)C)C(=O)N[C@H](C(N)=O)CSC3 [17-69-07-N241, bAla-Sar10-A-(17-69-07) D-Ala1 1Nal4 D-Ala5 tBuGly11] (H-[βAla][Sar][Sar][Sar][Sar][Sar][Sar][Sar][Sar][Sar][Sar]AC[dA]NE[1Nal][dA]CEDFYD[Tle]C-NH2; linker 13-19-26 via TBMB) | fully cross reactive |  |  |  |  |  |  |  |  |
